This note sets out measurements from paper PMC11071473 (bioRxiv, 2024).

This series deals with the molecule itself. The experiment in a line: cryo-EM structure.

Values joined by “and” are separate entries in the source; they are usually repeats but may differ in a detail not shown here. Identical values can stand only once.

B1: human polymerase theta helicase domain (PolθH, residues 2–894) (domain or fragment, UniProt O75417 2-894, looked up)
chain: NLLRRSGKRRRSESGSDSFSGSGGDSSASPQFLSGSVLSPPPGLGRCLKAAAAGECKPTVPDYERDKLLLANWGLPKAVLEKYHSFGVKKMFEWQAECLLLGQVLEGKNLVYSAPTSAGKTLVAELLILKRVLEMRKKALFILPFVSVAKEKKYYLQSLFQEVGIKVDGYMGSTSPSRHFSSLDIAVCTIERANGLINRLIEENKMDLLGMVVVDELHMLGDSHRGYLLELLLTKICYITRKSASCQADLASSLSNAVQIVGMSATLPNLELVASWLNAELYHTDFRPVPLLESVKVGNSIYDSSMKLVREFEPMLQVKGDEDHVVSLCYETICDNHSVLLFCPSKKWCEKLADIIAREFYNLHHQAEGLVKPSECPPVILEQKELLEVMDQLRRLPSGLDSVLQKTVPWGVAFHHAGLTFEERDIIEGAFRQGLIRVLAATSTLSSGVNLPARRVIIRTPIFGGRPLDILTYKQMVGRAGRKGVDTVGESILICKNSEKSKGIALLQGSLKPVRSCLQRREGEEVTGSMIRAILEIIVGGVASTSQDMHTYAACTFLAASMKEGKQGIQRNQESVQLGAIEACVMWLLENEFIQSTEASDGTEGKVYHPTHLGSATLSSSLSPADTLDIFADLQRAMKGFVLENDLHILYLVTPMFEDWTTIDWYRFFCLWEKLPTSMKRVAELVGVEEGFLARCVKGKVVARTERQHRQMAIHKRFFTSLVLLDLISEVPLREINQKYGCNRGQIQSLQQSAAVYAGMITVFSNRLGWHNMELLLSQFQKRLTFGIQRELCDLVRVSLLNAQRARVLYASGFHTVADLARANIVEVEVILKNAVPFKSARKAVDEEEEAVEERRNMRTIWVTGRKGLTEREAAALIVEEARMILQQDLVEM
For B1, the “stoichiometry N” value is 4 and 2.

One may read the stoichiometry N as the number of molecules, sites or subunits per partner or assembly.
